Data: paper PMC6895045, “Upregulation of tropomyosin alpha-4 chain in patients’ saliva with oral squamous cell carcinoma as demonstrated by Phage display” (Scientific Reports, 2019)

Target: T1, tropomyosin alpha-4 chain (Homo sapiens, UniProt P67936)
T1 construct: Tropomyosin alpha-4 chain, human, UniProtKB P67936; theoretical mass/pI printed as 28,522 kDa/4.67); Denatured protein on a nitrocellulose membrane; identity rests on MALDI-TOF MS of the excised spot; also called TPM4; TMP4; source: endogenous, pooled protein extracts from OSCC tissues, resolved by 2D gel electrophoresis
Test: far-Western, overlay or dot blot; Western blot of a 2D gel (pH 4-7) of OSCC tissue protein extracts on nitrocellulose, probed with scFv-D09, detected with HRP-conjugated rat anti-HA; the spot was excised from the stained gel and identified by MALDI-TOF MS
Conditions: one partner purified

T1 sequence (P67936 whole entry): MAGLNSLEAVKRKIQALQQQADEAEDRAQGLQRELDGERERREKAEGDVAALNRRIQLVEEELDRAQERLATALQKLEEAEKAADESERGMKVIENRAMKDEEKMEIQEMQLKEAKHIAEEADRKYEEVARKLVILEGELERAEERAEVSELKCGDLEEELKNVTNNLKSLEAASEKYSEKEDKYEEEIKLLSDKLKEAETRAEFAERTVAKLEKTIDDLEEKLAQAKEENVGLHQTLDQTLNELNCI

B1: scFv-D09 (scFv, V domains shown)
VH: QVQLQESGPGLVKPSQTLSLTCAVSGGSISSSNWWSWVRQPPGKGLEWIGEIYHSGSTNYNPSLKSRVTISVDKSKNQFSLKLSSVTAADTAVYYCARQSFPGRAFDIWGQGTMVTVSS
VL: EIVMTQSPATLSVSPGERATLSCRASQSVSSNLAWYQQKPGQAPRLLIYGASTRATGIPARFSGSGSGTEFTLTISSLQSEDFAVYYCQHYNNWLWTFGQGTKVEIK
notes: also called scFv D09 antibody; scFv-D09 clone
B1: binds.
